US6159704, “Phosphatase modulator” (Novartis AG, dated 2000)
Blank lines part the entries; values can stand above or below the binder they belong to.

B2: PP2Ac^100-309 fused to the GAL4 DNA binding domain (enzyme)
chain: LVALKVRYRERITILRGNHESRQITQVYGFYDECLRKYGNANVWKYFTDLFDYLPLTALVDGQIFCLHGGLSPSIDTLDHIRALDRLQEVPHEGPMCDLLWSDPDDRGGWGISPRGAGYTFGQDISETFNHANGLTLVSRAHQLVMEGYNWCHDRNVVTIFSAPNYCYRCGNQAAIMELDDTLKYSFLQFDPAPRRGEPHVTRRTPDYFL
B3: full length human PR55α fused to the GAL4 DNA binding domain (other)
chain: MAGAGGGNDIQWCFSQVKGAVDDDVAEADIISTVEFNHSGELLATGDKGGRVVIFQQEQENKIQSHSRGEYNVYSTFQSHEPEFDYLKSLEIEEKINKIRWLPQKNAAQFLLSTNDKTIKLWKISERDKRPEGYNLKEEDGRYRDPTTVTTLRVPVFRPMDLMVEASPRRIFANAHTYHINSISINSDYETYLSADDLRINLWHLEITDRSFNIVDIKPANMEELTEVITAAEFHPNSCNTFVYSSSKGTIRLCDMRASALCDRHSKLFEEPEDPSNRSFFSEIISSISDVKFSHSGRYMMTRDYLSVKIWDLNMENRPVETYQVHEYLRSKLCSLYENDCIFDKFECCWNGSDSVVMTGSYNNFFRMFDRNTKRDITLEASRENNKPRTVLKPRKVCASGKRKKDEISVDSLDFNKKILHTAWHPKENIIAVATTNNLYIFQDKVN
B4: PP2Ac^150-309 fused to the GAL4 DNA binding domain (enzyme)
chain: FDYLPLTALVDGQIFCLHGGLSPSIDTLDHIRALDRLQEVPHEGPMCDLLWSDPDDRGGWGISPRGAGYTFGQDISETFNHANGLTLVSRAHQLVMEGYNWCHDRNVVTIFSAPNYCYRCGNQAAIMELDDTLKYSFLQFDPAPRRGEPHVTRRTPDYFL

Experiments:
[1] = biological target: PP2Ac^1-209 fused to the GAL4 DNA binding domain (yeast; human, UniProt P04386); test: yeast two-hybrid, empty vector control: His growth (HF7c) and filter β-Gal colour (SFY526)
[2] = biological target: full length human PP2Acα fused to the GAL4 DNA binding domain (yeast; human); test: as above
[3] = biological target: PP2Ac^50-309 fused to the GAL4 DNA binding domain (yeast; human, UniProt P04386); test: as above
[4] = biological target: full length human PR65α fused to the GAL4 DNA binding domain (yeast; human); test: as above
[5] = biological target: PP2Ac^1-159 fused to the GAL4 DNA binding domain (yeast; human, UniProt P04386); test: as above
[6] = biological target: B2; test: as above
[7] = biological target: PP2Ac^1-259 fused to the GAL4 DNA binding domain (yeast; human, UniProt P04386); test: as above
[8] = biological target: B3; test: as above
[9] = biological target: B4; test: as above
[10] = biological target: full length human eRF1 fused to the GAL4 transactivation domain (yeast; human, UniProt P62495); test: yeast two-hybrid: His growth (HF7c) and colony colour in filter β-Gal assay (SFY526)
Text: PCR products encoding three N-terminal (PP2Ac^50-309, PP2Ac^100-309 and PP2Ac^150-309) and three C-terminal (PP2Ac^1-259, PP2Ac^1-209 and PP2Ac^1-159) truncations of PP2Acα are subcloned into pGBT9 in-frame with the GAL4 DNA binding domain. Control plasmids encoding wild-type GAL4 protein (pCL1), SV40 large T antigen (pTD1), p53 (pVA3) and lamin C (pLAM5'), the latter three fused to the appropriate domains of GAL4, are provided by the manufacturer and used for control interactions. Expression constructs are transformed into *S. cerevisiae* host strains SFY526 (lacZ reporter gene) and HF7c (lacZ and HIS3 reporter genes). […] The expression of the lacZreporter gene is determined by measuring β-galactosidase activity using 5-bromo-4-chloro-3-indolyl-β-D-galactoside [X-Gal] and O-nitrophenyl-β-D-galactoside [ONPG] as substrates, whereas the expression of HIS3 reporter gene is assessed by monitoring growth on triple selective SD medium lacking leucine, tryptophan and histidine. All media and reagents are prepared according to the manufacturer's recommendations. Transcriptional activation of reporter genes driven by wild-type GAL4 protein or brought about by the interaction between SV40 largeT and p53 are used as positive controls. To exclude intrinsic transcriptional activation capacity or non-specific binding of either molecules to unrelated proteins, cotransformations with the empty vector or vector encoding human lamin C fused to the opposite domain of GAL4 are used as negative controls.

binding result [1]: no binding | binding result [2]: no binding | binding result [3]: no binding | binding result [4]: no binding | binding result [5]: no binding | binding result [6]: no binding | binding result [7]: no binding | binding result [8]: no binding | binding result [9]: no binding
B1: GAL4 transactivation domain alone (empty vector pGAD424) (other)
chain: ANFNQSGNIADSSLSFTFTNSSNGPNLITTQTNSQALSQPIASSNVHDNFMNNEITASKIDDGNNSKPLSPGWTDQTAYNAFGITTGMFNTTTMDDVYNYLFDDEDTPPNPKKE

Binder: B2
binding result [10]: no binding

Binder: B3
binding result [10]: no binding

Binder: B4
binding result [10]: no binding
